Source: article PMC12184499, “Pathogenic variants in the polycystin pore helix cause distinct forms of channel dysfunction” (Proceedings of the National Academy of Sciences of the …, 2025)

B1: PKD2 WT channel (hPKD2: 52-793) (domain or fragment, human, UniProt Q13563 52-793, looked up)
chain: LEIEMQRIRQAAARDPPAGAAASPSPPLSSCSRQAWSRDNPGFEAEEEEEEVEGEEGGMVVEMDVEWRPGSRRSAASSAVSSVGARSRGLGGYHGAGHPSGRRRRREDQGPPCPSPVGGGDPLHRHLPLEGQPPRVAWAERLVRGLRGLWGTRLMEESSTNREKYLKSVLRELVTYLLFLIVLCILTYGMMSSNVYYYTRMMSQLFLDTPVSKTEKTNFKTLSSMEDFWKFTEGSLLDGLYWKMQPSNQTEADNRSFIFYENLLLGVPRIRQLRVRNGSCSIPQDLRDEIKECYDVYSVSSEDRAPFGPRNGTAWIYTSEKDLNGSSHWGIIATYSGAGYYLDLSRTREETAAQVASLKKNVWLDRGTRATFIDFSVYNANINLFCVVRLLVEFPATGGVIPSWQFQPLKLIRYVTTFDFFLAACEIIFCFFIFYYVVEEILEIRIHKLHYFRSFWNCLDVVIVVLSVVAIGINIYRTSNVEVLLQFLEDQNTFPNFEHLAYWQIQFNNIAAVTVFFVWIKLFKFINFNRTMSQLSTTMSRCAKDLFGFAIMFFIIFLAYAQLAYLVFGTQVDDFSTFQECIFTQFRIILGDINFAEIEEANRVLGPIYFTTFVFFMFFILLNMFLAIINDTYSEVKSDLAQQKAEMELSDLIRKGYHKALVKLKLKKNTVDDISESLRQGGGKLNFDELRQDLKGKGHTDAEIEAIFTKYDQDGDQELTEHEHQQMRDDLEKEREDLDLDH
notes: PKD2 (polycystin-2), human, residues 52-793 (hPKD2: 52-793); Construct is Strep-MBP-TEV-PKD2; the Strep tag lies before MBP and the TEV site, so it probably left with MBP on TEV cleavage; The cryo-EM methods give 53-792 for the variants; also called polycystin; source: Expi293F GnTI-/- cells, transient transfection, purified (Strep-Tactin, amphipol A8-35, SEC); not shown: MBP, N-terminal, cleaved
B2: PKD2 R638C variant channel (hPKD2: 52-793) (domain or fragment, human, UniProt Q13563 52-793, looked up)
chain: LEIEMQRIRQAAARDPPAGAAASPSPPLSSCSRQAWSRDNPGFEAEEEEEEVEGEEGGMVVEMDVEWRPGSRRSAASSAVSSVGARSRGLGGYHGAGHPSGRRRRREDQGPPCPSPVGGGDPLHRHLPLEGQPPRVAWAERLVRGLRGLWGTRLMEESSTNREKYLKSVLRELVTYLLFLIVLCILTYGMMSSNVYYYTRMMSQLFLDTPVSKTEKTNFKTLSSMEDFWKFTEGSLLDGLYWKMQPSNQTEADNRSFIFYENLLLGVPRIRQLRVRNGSCSIPQDLRDEIKECYDVYSVSSEDRAPFGPRNGTAWIYTSEKDLNGSSHWGIIATYSGAGYYLDLSRTREETAAQVASLKKNVWLDRGTRATFIDFSVYNANINLFCVVRLLVEFPATGGVIPSWQFQPLKLIRYVTTFDFFLAACEIIFCFFIFYYVVEEILEIRIHKLHYFRSFWNCLDVVIVVLSVVAIGINIYRTSNVEVLLQFLEDQNTFPNFEHLAYWQIQFNNIAAVTVFFVWIKLFKFINFNRTMSQLSTTMSRCAKDLFGFAIMFFIIFLAYAQLAYLVFGTQVDDFSTFQECIFTQFCIILGDINFAEIEEANRVLGPIYFTTFVFFMFFILLNMFLAIINDTYSEVKSDLAQQKAEMELSDLIRKGYHKALVKLKLKKNTVDDISESLRQGGGKLNFDELRQDLKGKGHTDAEIEAIFTKYDQDGDQELTEHEHQQMRDDLEKEREDLDLDH
notes: PKD2 (polycystin-2), human, residues 52-793, ADPKD germline missense variant R638C in pore helix 1; Construct is Strep-MBP-TEV-PKD2; the Strep tag probably left with MBP on TEV cleavage; The cryo-EM methods give 53-792; the model holds E214-Q694 without M295-A303; source: Expi293F GnTI-/- cells, transient transfection, purified (Strep-Tactin, amphipol A8-35, SEC); not shown: MBP, N-terminal, …
B3: PKD2 F629S variant channel (hPKD2: 52-793) (domain or fragment, human, UniProt Q13563 52-793, looked up)
chain: LEIEMQRIRQAAARDPPAGAAASPSPPLSSCSRQAWSRDNPGFEAEEEEEEVEGEEGGMVVEMDVEWRPGSRRSAASSAVSSVGARSRGLGGYHGAGHPSGRRRRREDQGPPCPSPVGGGDPLHRHLPLEGQPPRVAWAERLVRGLRGLWGTRLMEESSTNREKYLKSVLRELVTYLLFLIVLCILTYGMMSSNVYYYTRMMSQLFLDTPVSKTEKTNFKTLSSMEDFWKFTEGSLLDGLYWKMQPSNQTEADNRSFIFYENLLLGVPRIRQLRVRNGSCSIPQDLRDEIKECYDVYSVSSEDRAPFGPRNGTAWIYTSEKDLNGSSHWGIIATYSGAGYYLDLSRTREETAAQVASLKKNVWLDRGTRATFIDFSVYNANINLFCVVRLLVEFPATGGVIPSWQFQPLKLIRYVTTFDFFLAACEIIFCFFIFYYVVEEILEIRIHKLHYFRSFWNCLDVVIVVLSVVAIGINIYRTSNVEVLLQFLEDQNTFPNFEHLAYWQIQFNNIAAVTVFFVWIKLFKFINFNRTMSQLSTTMSRCAKDLFGFAIMFFIIFLAYAQLAYLVFGTQVDDFSTSQECIFTQFRIILGDINFAEIEEANRVLGPIYFTTFVFFMFFILLNMFLAIINDTYSEVKSDLAQQKAEMELSDLIRKGYHKALVKLKLKKNTVDDISESLRQGGGKLNFDELRQDLKGKGHTDAEIEAIFTKYDQDGDQELTEHEHQQMRDDLEKEREDLDLDH
notes: PKD2 (polycystin-2), human, residues 52-793, ADPKD germline missense variant F629S in pore helix 1; Construct is Strep-MBP-TEV-PKD2; the Strep tag probably left with MBP on TEV cleavage; The cryo-EM methods give 53-792; the model holds E214-Q694 without M295-A303; source: Expi293F GnTI-/- cells, transient transfection, purified (Strep-Tactin, amphipol A8-35, SEC); not shown: MBP, N-terminal, …

Key:
[1] = target: the molecule itself; assay: SEC; Superdex 200 10/300 GL; PKD2 52-793 extracted with DDM and reconstituted in amphipol A8-35; Buffer B (25 mM pH 7.4, 150 mM NaCl, 1 mM TCEP, 1 mM CaCl2); oligomer and protomer peaks
[2] = target: the molecule itself; assay: cryo-EM structure; single-particle cryo-EM of variant channels in amphipol A8-35 (0.5 to 1.0 mg/mL), refined with C4 symmetry

Protein	binding result [1]	stoichiometry N [2]
B1	binds	–
B2	–	4
B3	–	4
